According to paper PMC3285272 (Cell, 2012):

Target: T1, γζ-COP core complex (bovine γ-COP 1–355 plus ζ-COP 1–153) (B. taurus, UniProt P53620 1-355; P35604 1-153)
T1 sequence (looked up) 1: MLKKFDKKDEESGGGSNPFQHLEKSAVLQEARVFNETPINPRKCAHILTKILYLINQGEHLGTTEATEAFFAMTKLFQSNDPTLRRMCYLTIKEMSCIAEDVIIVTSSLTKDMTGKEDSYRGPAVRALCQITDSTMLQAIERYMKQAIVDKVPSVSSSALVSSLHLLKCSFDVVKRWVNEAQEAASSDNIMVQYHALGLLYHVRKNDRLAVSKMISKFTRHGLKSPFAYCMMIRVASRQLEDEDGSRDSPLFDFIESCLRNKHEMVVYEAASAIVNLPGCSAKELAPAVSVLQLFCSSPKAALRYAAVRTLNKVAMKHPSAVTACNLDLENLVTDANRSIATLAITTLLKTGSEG
T1 sequence (looked up) 2: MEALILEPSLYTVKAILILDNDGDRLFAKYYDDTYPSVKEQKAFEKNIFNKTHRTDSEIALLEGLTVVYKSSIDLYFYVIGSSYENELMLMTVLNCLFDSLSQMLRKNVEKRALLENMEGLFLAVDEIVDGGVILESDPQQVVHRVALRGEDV
Test: pull-down

- binding result: binds
B1: S. cerevisiae Arf1 (residues 18–181) with a C-terminal GST tag (domain or fragment, UniProt P11076 18-181, looked up)
chain: MRILMVGLDGAGKTTVLYKLKLGEVITTIPTIGFNVETVQYKNISFTVWDVGGQDRIRSLWRHYYRNTEGVIFVVDSNDRSRIGEAREVMQRMLNEDELRNAAWLVFANKQDLPEAMSAAEITEKLGLHSIRNRPWFIQATCATSGEGLYEGLEWLSNSLKNST
